Assay results: patent US20180118848A1 (Regeneron, published 2018)

Key:
human MUC16 (mucin 16) [1] = biological target: T1, human MUC16 (mucin 16) (human); assay: MSD ECL cell binding, RLU ratio OVCAR-3 vs SK-OV-3, 1.9 nM Ab
T1 construct: Endogenously expressed on human tumour cell lines; also called hMUC16
Experimental: (§1) The ability of anti-MUC16 antibodies to bind specifically to endogenously expressing MUC16 on the human ovarian carcinoma cell line (OVCAR-3) was evaluated via an electrochemiluminescence based detection assay (Meso Scale Discovery (MSD), Rockville, Md.). […] Detached cells were then washed once in 1×PBS supplemented with Ca²⁺/Mg²⁺ and counted (Cellometer Auto T4 cell counter, Nexcelom Bioscience, Lawrence, Mass.). Approximately 1.0×10⁴ cells were plated in MULTI-ARRAY 96-well carbon electrode plates (MSD) and incubated for 1 h at 37° C. […] Next, serial dilutions of anti-MUC16 or control antibodies (0.85 pM-50 nM) and no-antibody buffer controls were added to the plate-bound cells and incubated for 1 h at room temperature (RT). Plates were then washed to remove the unbound antibodies using an AquaMax2000 plate washer (MDS Analytical Technologies, Sunnyvale, Calif.). Plate-bound antibodies were detected with a SULFO-TAG™-conjugated anti-human kappa light chain antibody (Regeneron) or a SULFO-TAG™-conjugated anti-mouse IgG antibody (Jackson Immunoresearch, West Grove, Pa.) for 1 h at RT. Post-wash, plates were developed with Read Buffer (MSD) according to manufacturer's protocol and luminescent signals were recorded with a SECTOR Imager 6000 (MSD) instrument.
(§2) Luminescence intensity, measured in relative light units (RLU), for the two cell lines was recorded to indicate the binding intensity of each antibody.

human MUC16 (mucin 16) [2] = biological target: T1, human MUC16 (mucin 16); assay: MSD ECL cell binding, RLU ratio OVCAR-3 vs SK-OV-3, 16.7 nM Ab; NS = ratio <2.5-fold
Experimental: as §1, with “Plates were then washed to remove the unbound antibodies using an AquaMax2000 plate washer (MDS Analytical Technologies, Sunnyvale, Calif.).” left out
as §2

human MUC16 (mucin 16) [3] = biological target: T1, human MUC16 (mucin 16); assay: cell-based or functional assay
human MUC16 (mucin 16) [4] = biological target: T1, human MUC16 (mucin 16); assay: cell-based or functional assay; remark: listed apart in the source
human MUC16 (mucin 16) [5] = biological target: T1, human MUC16 (mucin 16); assay: FACS binding titration on PEO-1 (MUC16+) cells
Experimental: (§3) A. Briefly, flow cytometric analysis (i.e. fluorescence-activated cell sorting, or FACS) was utilized to determine binding of bispecific antibodies to Jurkat cells or cells expressing human MUC16, followed by detection with a phycoerythrin (PE)-labeled or APC-labeled anti-human IgG antibody. […] After incubation, the cells were washed twice with cold PBS containing 1% filtered FBS and a PE-conjugated or APC-conjugated anti-human secondary antibody was added to the cells and incubated for an additional 30 minutes. Wells containing no antibody or secondary only were also used as controls. After incubation, cells were washed, re-suspended in 200 μL cold PBS containing 1% filtered FBS and analyzed by flow cytometry on a BD FACS Canto II.
B. In separate experiments with analogous conditions to that described above, flow cytometric analysis (or FACS) was utilized to determine binding of select bispecific antibodies to Jurkat cells, PEO-1, OVCAR3-Luc and cynomolgus T cells. For the titration analysis, serial dilution of selected MUC16×CD3 bispecific antibodies, a first isotype control antibody (a human chimeric IgG4 antibody that binds an irrelevant human antigen with no cross-reactivity to human or cynomolgus CD3) and a second isotype control antibody (a human chimeric IgG4 antibody that binds an irrelevant human antigen with no cross-reactivity to human MUC16), ranging from 66.6 nM to 0.001 nM.
(§4) For FACS analysis, cells were gated by forward scatter height vs. forward scatter area for single events selection, followed by side and forward scatters. The EC50 for cell binding titration was determined using PRISM™ software (GraphPad Software, Inc., La Jolla, Calif.). Values were calculated using 4-parameter non-linear regression analysis. (Liu, J., et al. 2005, Biotechnol Letters 27:1821-1827).

human MUC16 (mucin 16) [6] = biological target: T1, human MUC16 (mucin 16); assay: FACS binding titration on OVCAR3-Luc (MUC16+) cells
Experimental: as §3
B. In separate experiments with analogous conditions to that described above, flow cytometric analysis (or FACS) was utilized to determine binding of select bispecific antibodies to Jurkat cells, PEO-1, OVCAR3-Luc and cynomolgus T cells. […]
as §4, with “(Liu, J., et al. 2005, Biotechnol Letters 27:1821-1827).” left out

human MUC16 (mucin 16) [7] = biological target: T1, human MUC16 (mucin 16); assay: cell-based or functional assay; remark: listed apart in the source
human MUC16 (mucin 16) [8] = biological target: T1, human MUC16 (mucin 16); assay: FACS binding titration on OVCAR3 (MUC16+) cells

Ratio anti-MUC16 Binding OVCAR-3/SK-OV-3 (human MUC16 (mucin 16) [1]) [ratio] | Ratio anti-MUC16 Binding OVCAR-3/SK-OV-3 (human MUC16 (mucin 16) [2]) [ratio] | PEO-1 cell depletion EC50 (human MUC16 (mucin 16) [3]) [nM] | OVCAR3-Luc cell depletion EC50 (human MUC16 (mucin 16) [4]) [nM] | EC50 (human MUC16 (mucin 16) [5]) [nM] | EC50 (human MUC16 (mucin 16) [6]) [nM] | OVCAR3 cell depletion EC50 (human MUC16 (mucin 16) [7]) [nM] | EC50 (human MUC16 (mucin 16) [8]) [nM] | Binder
4 | < 2.5 | – | – | – | – | – | – | H1H8767P (antibody, human IgG1, V domains shown, Human IgG1) VH: QVQLVESGGGLVKPGGSLRLSCAASGFTFSNYYMSWVRQAPGKGLEWISYISGRGSTIFYADSVKGRITISRDNAKNSLFLQMNSLRAEDTAVYFCVKDRGGYSPYWGQGTLVTVSS VL: not shown
– | – | 0.0256 | 0.0154 | 3.02 | 1.32 | 0.0224 | 1.2 | BSMUC16/CD3-001 (bispecific antibody, V domains shown, Anti-MUC16 HCVR of H1H8767P, anti-CD3 HCVR CD3-VH-G, common light chain of H1H8767P; also called anti-MUC16xCD3 bispecific antibody with CD3-VH-G arm) VH 1: QVQLVESGGGLVKPGGSLRLSCAASGFTFSNYYMSWVRQAPGKGLEWISYISGRGSTIFYADSVKGRITISRDNAKNSLFLQMNSLRAEDTAVYFCVKDRGGYSPYWGQGTLVTVSS VH 2: EVQLVESGGGLVQPGRSLRLSCAASGFTFDDYSMHWVRQAPGKGLEWVSGISWNSGSKGYADSVKGRFTISRDNAKNSLYLQMNSLRAEDTALYYCAKYGSGYGKFYHYGLDVWGQGTTVTVSS VL: not shown

The remaining lines, values behind:

Binder | Ratio anti-MUC16 Binding OVCAR-3/SK-OV-3 (human MUC16 (mucin 16) [1]) [ratio] | Ratio anti-MUC16 Binding OVCAR-3/SK-OV-3 (human MUC16 (mucin 16) [2]) [ratio] | PEO-1 cell depletion EC50 (human MUC16 (mucin 16) [3]) [nM] | OVCAR3-Luc cell depletion EC50 (human MUC16 (mucin 16) [4]) [nM] | EC50 (human MUC16 (mucin 16) [5]) [nM] | EC50 (human MUC16 (mucin 16) [6]) [nM] | OVCAR3 cell depletion EC50 (human MUC16 (mucin 16) [7]) [nM] | EC50 (human MUC16 (mucin 16) [8]) [nM]
H1H8808P (antibody, human IgG1, V domains shown, Human IgG1) VH: QVQLVESGGGVVQPGRSLRLSCVASGFTFSNYGIHWVRQAPGKGLEWVAVISDDGSFKFYADSVKGRFTISRDNSKNTLYLQMNSLRVEDSAVYHCAKWQHNWNDGGFDYWGQGTLVTVSS VL: EIVLTQSPDTLSLSPGERATLSCRASQSLSSNYLAWYRQKPGQAPRLLIYGISSRATGIPDRFSGSGSGTDFTLTISRLEPEDFAVYYCQQYGSSPWTFGQGTKVEIK | 4 | < 2.5 | – | – | – | – | – | –
BSMUC16/CD3-005 (bispecific antibody, V domains shown, Anti-MUC16 HCVR of H1H8767P, anti-CD3 HCVR CD3-VH-G20, common light chain of H1H8767P; also called anti-MUC16xCD3 bispecific antibody with CD3-VH-G20 arm; REGN4019) VH 1: QVQLVESGGGLVKPGGSLRLSCAASGFTFSNYYMSWVRQAPGKGLEWISYISGRGSTIFYADSVKGRITISRDNAKNSLFLQMNSLRAEDTAVYFCVKDRGGYSPYWGQGTLVTVSS VH 2: EVQLVESGGGLVQPGRSLRLSCAASGFTFDDYSMHWVRQAPGKGLEWVSGISWNSGSIGYADSVKGRFTISRDNAKNSLYLQMNSLRAEDTALYYCAKYGSGYGKFYYYGMDVWGQGTTVTVSS VL: not shown | – | – | 0.0774 | 0.0516 | 2.63 | 1.47 | – | –
